Reference: patent US20130102527A1 (TRUSTEES OF DARTMOUTH COLLEGE, published 2013)
Read-outs that look alike come from different tables or passages of the source. Non-standard residues stand in square brackets, D forms with d. Primed or numbered codes have the meaning given here. No end group written: not given here. *: point of attachment. N3‑Phe = N-terminal azido-phenylalanine, [N-]=[N+]=N[C@@H](Cc1ccccc1)C(=O)*; HMB = 3-hydroxy-2-methylbenzoyl cap, Cc1c(O)cccc1C(=O)*; Phe(4-N3) = [N-]=[N+]=Nc1ccc(C[C@H](N)C(=O)O)cc1; Phe(4-CH2NH2) = NCc1ccc(C[C@H](N)C(=O)O)cc1; Phe(4-NH2) = Nc1ccc(C[C@H](N)C(=O)O)cc1; N3Phe = N-terminal azido-phenylalanine; 4Pal = N[C@@H](Cc1ccncc1)C(=O)O; VS″ = vinyl sulfone (warhead); VS = vinyl sulfone warhead; EK = epoxyketone warhead; ek = epoxyketone warhead

Key:
[1] = biological target: T1, trypsin-like site (β2 subunit) of 26S proteasomes purified from rabbit muscle (rabbit, UniProt G1SWK8 44-271); assay: cell-based or functional assay
T1 sequence: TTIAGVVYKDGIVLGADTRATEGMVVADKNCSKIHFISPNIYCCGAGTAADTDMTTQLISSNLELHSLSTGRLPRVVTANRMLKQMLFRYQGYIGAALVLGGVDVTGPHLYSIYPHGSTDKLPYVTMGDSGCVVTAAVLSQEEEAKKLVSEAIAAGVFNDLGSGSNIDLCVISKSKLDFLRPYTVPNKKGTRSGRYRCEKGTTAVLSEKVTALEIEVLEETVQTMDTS

[2] = biological target: T2, chymotrypsin-like site (β5 subunit) of 26S proteasomes purified from rabbit muscle (rabbit, UniProt G1T4Q9 60-263); assay: cell-based or functional assay
T2 sequence: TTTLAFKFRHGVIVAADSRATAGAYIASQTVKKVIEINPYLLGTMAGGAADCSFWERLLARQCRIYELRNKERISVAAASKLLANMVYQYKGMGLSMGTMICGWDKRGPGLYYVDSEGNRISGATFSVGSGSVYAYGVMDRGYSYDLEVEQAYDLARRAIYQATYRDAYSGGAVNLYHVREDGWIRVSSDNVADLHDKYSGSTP

[3] = biological target: T3, caspase-like site (β1 subunit) of 26S proteasomes purified from rabbit muscle (rabbit); assay: cell-based or functional assay
[4] = biological target: T1, trypsin-like site (β2 subunit) of 26S …; assay: cell-based or functional assay; remark: listed apart in the source
[5] = biological target: T3, caspase-like site (β1 subunit) of 26S …; assay: cell-based or functional assay; remark: listed apart in the source
[6] = biological target: T4, proteasome β1 subunit (caspase-like site) in human cells and cell extracts (human, UniProt P28072 35-239); assay: cell-based or functional assay
T4 sequence (P28072 35-239): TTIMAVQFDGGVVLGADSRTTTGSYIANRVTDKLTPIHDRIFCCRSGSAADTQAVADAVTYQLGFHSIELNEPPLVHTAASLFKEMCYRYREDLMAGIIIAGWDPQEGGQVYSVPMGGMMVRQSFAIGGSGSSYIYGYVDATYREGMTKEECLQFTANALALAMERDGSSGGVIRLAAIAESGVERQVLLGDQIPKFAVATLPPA

[7] = biological target: T4, proteasome β1 subunit (caspase-like …); assay: labelling and competition assay in HEK-293T lysate, fluorescence gel
[8] = biological target: T5, proteasome β5 subunit (chymotrypsin-like site) in human cells and cell extracts (human, UniProt P28074 60-263); assay: cell-based or functional assay
[9] = biological target: T6, trypsin-like site (β2 subunit) of yeast 20S proteasome (S. cerevisiae, UniProt P25043 30-261); assay: cell-based or functional assay
T6 sequence (looked up): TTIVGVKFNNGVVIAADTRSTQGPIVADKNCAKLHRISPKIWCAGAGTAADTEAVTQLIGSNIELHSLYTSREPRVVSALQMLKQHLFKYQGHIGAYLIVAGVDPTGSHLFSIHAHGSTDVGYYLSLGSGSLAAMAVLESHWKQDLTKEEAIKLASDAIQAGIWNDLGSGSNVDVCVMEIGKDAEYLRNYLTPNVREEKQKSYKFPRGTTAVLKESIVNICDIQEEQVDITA

[10] = biological target: T6, trypsin-like site (β2 subunit) of yeast …; assay: cell-based or functional assay; remark: listed apart in the source
[11] = biological target: T7, chymotrypsin-like site (β5 subunit) of yeast 20S proteasome (S. cerevisiae, UniProt P30656 76-287); assay: cell-based or functional assay
T7 sequence (looked up): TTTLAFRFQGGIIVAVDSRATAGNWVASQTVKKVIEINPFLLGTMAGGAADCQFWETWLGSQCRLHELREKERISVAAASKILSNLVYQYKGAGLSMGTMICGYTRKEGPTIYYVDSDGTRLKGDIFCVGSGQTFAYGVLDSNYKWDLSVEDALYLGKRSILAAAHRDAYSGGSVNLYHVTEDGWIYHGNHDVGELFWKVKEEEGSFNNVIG

[12] = biological target: T1, trypsin-like site (β2 subunit) of 26S …; assay: cell-based or functional assay; remark: listed apart in the source
[13] = biological target: T2, chymotrypsin-like site (β5 subunit) of …; assay: cell-based or functional assay; remark: listed apart in the source
[14] = biological target: T5, proteasome β5 subunit …; assay: competition with activity-based probe in living HEK-293 cells, 4 h; Chym-L site

[Phe(4-N3)]LL[Phe(4-NH2)]-{EK} [N3-Phe-Leu-Leu-Phe(4-NH2)-EK (45b)]
IC50 (µM) for sites in 26S proteasomes: Tr-L [1]: 1.8 µM | IC50 (µM) for sites in 26S proteasomes: Chym-L [2]: 0.01 µM | IC50 (µM) for sites in 26S proteasomes: Casp-L [3]: > 30 µM

[N3Phe]LL[Phe(4-NH2)]-{VS} [N3-Phe-Leu-Leu-Phe(4-NH2)-VS (45a)]
IC50 (µM) for sites in 26S proteasomes: Chym-L [2]: 0.04 µM | IC50 (µM) for sites in 26S proteasomes: Casp-L [3]: 23 µM

{HMB}-Val-Ser-[Phe(4-CH2NH2)]-{VS} [HMB-Val-Ser-Phe(4-CH2NH2)-VS (48)]
IC50 (µM) for sites in 26S proteasomes: Tr-L [4]: 0.25 µM | IC50 (µM) for sites in 26S proteasomes: Casp-L [5]: 11 µM | IC50 (µM) for sites: Casp-L; NCI-H929 cells, 6 h, PROTEASOMEGLO [6]: > 30 µM | IC50 (µM) for sites: Casp-L; RPMI-8226 cells, 6 h, PROTEASOMEGLO [6]: > 30 µM

B1: BODIPY-triazole-Phe-Leu-Leu-Phe(4-CH2NH2)-VS TFA salt (39) (peptide)
peptide: {BODIPY‑triazole}-FLL[Phe(4-CH2NH2)]-{VS″}
modifications: also: TFA salt
notes: Fluorescent probe made from compound 4a; also called compound 39
binding result [7]: no binding

{HMB}-Val-Ser-Arg-ek [NC-022 (HMB-Val-Ser-Arg-ek)]
IC50 (µM) for sites in 26S proteasomes: Tr-L [4]: 0.0038 µM | IC50 (µM) for sites in 26S proteasomes: Casp-L [5]: 16 µM | IC50 (µM) for sites: Chym-L; NCI-H929 cells, 6 h, PROTEASOMEGLO [8]: > 30 µM | IC50 (µM) for sites: Chym-L; RPMI-8226 cells, 6 h, PROTEASOMEGLO [8]: > 30 µM | IC50 (µM) for sites: Casp-L; NCI-H929 cells, 6 h, PROTEASOMEGLO [6]: > 30 µM | IC50 (µM) for sites: Casp-L; RPMI-8226 cells, 6 h, PROTEASOMEGLO [6]: > 30 µM

[N3‑Phe][Phe(4-CH2NH2)]L[Phe(4-CH2NH2)]-{VS} [N3-Phe-Phe(4-CH2NH2)-Leu-Phe(4-CH2NH2)-VS (52)]
fold potency against yeast trypsin-like sites relative to 4a [9]: > 4000 fold | IC50 (µM) for yeast 20S proteasome: Tr-L [10]: 0.00055 µM | IC50 (µM) for yeast 20S proteasome: Chym-L [11]: 6.1 µM

[Phe(4-N3)]LL[Phe(4-CH2NH2)]-{EK} (also: TFA salt) [N3Phe-Leu-Leu-Phe(4-CH2NH2)EK TFA salt (4b)]
IC50 (µM) for sites in 26S proteasomes: Tr-L [1]: 0.25 µM | IC50 (µM) for sites in 26S proteasomes: Casp-L [3]: 11 µM

Ac-Leu-Leu-Arg-ek [NC-002 (Ac-Leu-Leu-Arg-ek)]
IC50 (µM) for sites in 26S proteasomes: Tr-L [1]: 1 µM | IC50 (µM) for sites in 26S proteasomes: Chym-L [2]: > 30 µM | IC50 (µM) for sites in 26S proteasomes: Casp-L [3]: > 30 µM

[N3Phe][4Pal]L[Phe(4-CH2NH2)]-{VS} (also: TFA salt) [N3-Phe-Ala(4-pyridine)-Leu-Phe(4-CH2NH2-TFA)-VS (50)]
IC50 (µM) for sites: Tr-L [12]: 0.012 µM | IC50 (µM) for sites: Chym-L [13]: 1.05 µM | IC50 (µM) for sites: Casp-L; NCI-H929 cells, 6 h, PROTEASOMEGLO [6]: > 30 µM | IC50 [14]: > 50 µM
